Numbered stars: 1 amine (or outer) side, 2 acyl side, 3 side chain; on linkers, the order of the positions; unused ones are H or OH. Square brackets hold non-standard residues; d marks the D form. Ends that are not written are not given here. X3 = Pro(4S-(4-(4-aminophenyl)-1,2,3-triazol-1-yl)), O=C([C@@H]1C[C@H](n2cc(-c3ccc(N[*:3])cc3)nn2)CN1[*:1])[*:2]; Cit = NC(=O)NCCC[C@H](N)C(=O)O
Biological target: Full-length HIV-1 YU2 gp120 (HIV-1 YU2, UniProt P35961 32-498)
Assay: ELISA

Q: For [Cit]NNI[X3]WS-NH2 [UM25 peptide triazole], which IC50 is on record?
A: The IC50 was 18 µM.

Reference: paper PMC3800186 (Biochemistry, 2013)
